The target in the assay is mCherry-p62 delta PB1 (recombinant) (human). Put plainly: SEC-MALS; size exclusion chromatography with static light scattering (Superdex 200 10/300, MiniDawn Treos); 25 mM HEPES pH 7.5, 500 mM NaCl, 1 mM DTT. A general note: Size exclusion chromatography separates by hydrodynamic size, large species first.

In PMC4684078 one finds stoichiometry N data, which are given here for one substance.

In the case of “mCherry-p62 delta PB1 (recombinant) (domain or fragment)”, the stoichiometry N (usually the number of molecules, sites or subunits per partner or assembly) was determined as 3.
